One assay has as its target T1, PlexinA2-ECD-Fc (human, UniProt O75051 35-1237).
T1 construct: extracellular domain; Bought reagent
T1 sequence (looked up): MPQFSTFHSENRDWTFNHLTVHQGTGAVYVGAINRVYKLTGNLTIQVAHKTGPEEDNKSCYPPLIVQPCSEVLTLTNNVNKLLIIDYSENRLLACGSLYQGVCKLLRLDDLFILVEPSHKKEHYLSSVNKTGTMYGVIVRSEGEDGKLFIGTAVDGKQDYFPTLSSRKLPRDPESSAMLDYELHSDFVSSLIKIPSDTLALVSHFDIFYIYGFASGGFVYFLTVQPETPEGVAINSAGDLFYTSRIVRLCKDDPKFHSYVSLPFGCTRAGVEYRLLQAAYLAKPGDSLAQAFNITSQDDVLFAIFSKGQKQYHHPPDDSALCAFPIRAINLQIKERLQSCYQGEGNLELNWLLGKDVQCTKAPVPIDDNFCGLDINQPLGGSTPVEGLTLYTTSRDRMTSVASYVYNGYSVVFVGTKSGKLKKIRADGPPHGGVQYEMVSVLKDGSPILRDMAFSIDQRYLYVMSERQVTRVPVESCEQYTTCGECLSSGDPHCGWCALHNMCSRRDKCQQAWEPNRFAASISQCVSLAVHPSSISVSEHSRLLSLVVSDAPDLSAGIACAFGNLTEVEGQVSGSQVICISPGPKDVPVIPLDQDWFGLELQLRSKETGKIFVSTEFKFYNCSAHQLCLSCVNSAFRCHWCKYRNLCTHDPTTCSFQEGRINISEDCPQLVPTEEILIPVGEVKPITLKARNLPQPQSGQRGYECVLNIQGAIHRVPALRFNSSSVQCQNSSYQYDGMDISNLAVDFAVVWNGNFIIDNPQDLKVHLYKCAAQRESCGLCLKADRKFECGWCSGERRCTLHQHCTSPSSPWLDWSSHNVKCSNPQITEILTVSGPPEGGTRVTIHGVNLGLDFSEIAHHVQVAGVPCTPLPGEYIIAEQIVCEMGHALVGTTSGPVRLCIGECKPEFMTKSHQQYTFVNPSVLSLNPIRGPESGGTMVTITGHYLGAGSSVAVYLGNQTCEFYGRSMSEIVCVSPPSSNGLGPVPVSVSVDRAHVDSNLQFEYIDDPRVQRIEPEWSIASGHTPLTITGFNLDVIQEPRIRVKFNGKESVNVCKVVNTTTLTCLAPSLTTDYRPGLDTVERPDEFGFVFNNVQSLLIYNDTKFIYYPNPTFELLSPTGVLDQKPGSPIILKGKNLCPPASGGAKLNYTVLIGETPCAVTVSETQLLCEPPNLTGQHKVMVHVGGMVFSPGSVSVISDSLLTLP
Kind of assay: ELISA, coated ECD-Fc, antibody 100000.000 ng/mL. On the procedure: (§1) Wells of 96-well EIA/RIA high binding plates (Costar, #2592) are coated with 100 μL of 1 μg/mL human c-Met extracellular domain (ECD)-Fc-Flis fusion (SEQ ID NO:72), RON-ECD-Fc (R&D Systems, #1947-MS), or PlexinA2-ECD-Fc (Abnova, Taipei, Taiwan #H00005362-P01) in coating buffer (BioFX Labs, # COAT-1000-01) overnight at 4° C. […] After the plates are washed, 100 μL/well of substrate solution (BioFx, #TMBW-1000-01) are added and the plates are incubated for 10 min. at room temperature. 100 μL/well of stop solution (BioFx, # LSTP-1000-01) are added to stop the reaction. The colorimetric signals are developed and read at 450 nm using a SpectraMax 190 plate reader (Molecular Devices, Sunnyvale, Calif.). c-Met antibody binding to c-Met, RON and PlexinA2 ECDs is proportional to color signal production.
Background: ELISA stands for enzyme-linked immunosorbent assay.

Assay [1] addresses T2, RON-ECD-Fc (human, UniProt Q04912 25-957).
T2 construct: extracellular domain; Bought reagent; not shown: Fc part of the bought fusion
T2 sequence (looked up): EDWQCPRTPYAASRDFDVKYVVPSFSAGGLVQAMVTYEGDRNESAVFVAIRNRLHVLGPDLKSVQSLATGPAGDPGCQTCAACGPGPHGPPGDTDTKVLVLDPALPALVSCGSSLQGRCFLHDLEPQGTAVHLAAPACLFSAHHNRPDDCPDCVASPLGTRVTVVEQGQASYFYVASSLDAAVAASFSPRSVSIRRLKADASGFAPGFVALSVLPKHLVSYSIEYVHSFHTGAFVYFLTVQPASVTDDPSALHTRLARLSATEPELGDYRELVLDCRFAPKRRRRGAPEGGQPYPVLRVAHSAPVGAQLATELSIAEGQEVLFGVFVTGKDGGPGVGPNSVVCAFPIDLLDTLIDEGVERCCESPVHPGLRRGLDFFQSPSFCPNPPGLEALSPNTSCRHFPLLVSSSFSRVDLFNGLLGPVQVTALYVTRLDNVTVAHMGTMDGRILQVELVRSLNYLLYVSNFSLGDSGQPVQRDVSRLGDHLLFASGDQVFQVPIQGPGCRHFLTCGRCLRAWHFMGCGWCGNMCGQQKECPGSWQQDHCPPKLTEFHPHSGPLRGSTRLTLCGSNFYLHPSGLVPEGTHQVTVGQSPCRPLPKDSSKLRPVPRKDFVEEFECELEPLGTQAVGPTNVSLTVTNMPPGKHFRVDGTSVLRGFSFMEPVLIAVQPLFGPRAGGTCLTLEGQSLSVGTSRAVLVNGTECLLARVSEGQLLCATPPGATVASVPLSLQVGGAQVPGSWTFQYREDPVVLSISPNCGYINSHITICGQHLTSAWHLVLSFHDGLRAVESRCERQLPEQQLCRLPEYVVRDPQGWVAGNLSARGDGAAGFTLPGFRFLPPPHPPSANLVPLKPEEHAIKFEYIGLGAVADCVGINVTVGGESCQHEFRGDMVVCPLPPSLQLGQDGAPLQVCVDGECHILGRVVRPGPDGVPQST
In words: ELISA, coated ECD-Fc, antibody 100000.000 ng/mL. On the procedure:
as §1

The target of assay [2] is T3, Human c-Met-Flis-Fc ECD (human).
T3 construct: also called human c-Met extracellular domain (ECD)-Fc-Flis fusion; Human cMet-ECD-Fc-Flis
T3 sequence (chain, as listed by the source limits assumed): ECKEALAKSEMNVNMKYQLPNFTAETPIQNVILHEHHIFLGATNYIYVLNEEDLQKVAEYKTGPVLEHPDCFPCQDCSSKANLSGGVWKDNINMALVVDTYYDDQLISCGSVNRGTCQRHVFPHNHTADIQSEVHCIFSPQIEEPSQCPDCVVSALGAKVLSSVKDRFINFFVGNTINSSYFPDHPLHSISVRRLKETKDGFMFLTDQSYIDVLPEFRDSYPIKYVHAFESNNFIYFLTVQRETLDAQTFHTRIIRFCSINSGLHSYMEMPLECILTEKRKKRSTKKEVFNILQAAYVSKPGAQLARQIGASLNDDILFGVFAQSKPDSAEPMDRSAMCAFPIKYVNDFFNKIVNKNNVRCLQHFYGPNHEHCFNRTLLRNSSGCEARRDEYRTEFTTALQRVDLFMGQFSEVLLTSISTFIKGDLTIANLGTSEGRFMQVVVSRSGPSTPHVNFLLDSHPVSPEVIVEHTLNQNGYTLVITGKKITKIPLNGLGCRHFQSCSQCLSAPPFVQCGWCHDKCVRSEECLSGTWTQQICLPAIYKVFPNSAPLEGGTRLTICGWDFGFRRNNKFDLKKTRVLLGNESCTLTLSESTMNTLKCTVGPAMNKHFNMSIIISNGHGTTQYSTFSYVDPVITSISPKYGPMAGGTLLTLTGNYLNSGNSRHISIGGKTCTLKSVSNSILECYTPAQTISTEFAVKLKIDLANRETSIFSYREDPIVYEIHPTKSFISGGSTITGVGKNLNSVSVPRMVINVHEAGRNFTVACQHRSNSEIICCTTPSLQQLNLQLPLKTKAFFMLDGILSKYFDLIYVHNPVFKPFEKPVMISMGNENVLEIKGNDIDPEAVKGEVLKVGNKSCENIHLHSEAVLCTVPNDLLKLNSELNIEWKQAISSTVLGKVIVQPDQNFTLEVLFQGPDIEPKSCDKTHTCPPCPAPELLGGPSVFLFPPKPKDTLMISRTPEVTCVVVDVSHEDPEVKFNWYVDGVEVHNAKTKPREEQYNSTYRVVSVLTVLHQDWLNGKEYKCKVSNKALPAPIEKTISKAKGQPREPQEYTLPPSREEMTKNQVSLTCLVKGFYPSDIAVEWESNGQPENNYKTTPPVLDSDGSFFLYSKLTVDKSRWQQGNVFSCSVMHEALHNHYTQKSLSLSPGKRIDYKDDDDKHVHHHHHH
Kind of assay: ELISA, coated ECD-Fc, antibody 100000.000 ng/mL. The protocol:
as §1

Assay [3] concerns the target T2, RON-ECD-Fc. In words: ELISA, coated ECD-Fc, antibody 462.963 ng/mL.
The target of assay [4] is T3, Human c-Met-Flis-Fc ECD. In words: ELISA, coated ECD-Fc, antibody 462.963 ng/mL.

B1: C8-6 (antibody, human IgG2, kappa, V domains shown)
VH: QVQLVQSGAEVKKPGASVKVSCKASGYTFTDYYMHWVRQAPGQGLEWMGRVNPNRGGTTYNQKFEGRVTMTTDTSTSTAYMELRSLRSDDTAVYYCARTNWLDYWGQGTTVTVSS
VL: DIQMTQSPSSLSASVGDRVTITCSVSSSVSSIYLHWYQQKPGKAPKLLIYSTSNLASGVPSRFSGSGSGTDFTLTISSLQPEDFATYYCIQYSGYPLTFGGGTKVEIKR
notes: Called IgG4, kappa; also called Mab C8-6
As for B1, the “Average A450 nm” value with PlexinA2-ECD-Fc was found to be 0.171 A450 nm; in the assay with RON-ECD-Fc [1], 0.17 A450 nm; in the assay with Human c-Met-Flis-Fc ECD [2], 4 A450 nm; with RON-ECD-Fc [3], 0.088 A450 nm; with Human c-Met-Flis-Fc ECD [4] it was 4 A450 nm.

These data come from patent US20100129369A1 (Eli Lilly, published 2010).
